Values of other authors in publication PMC3281059.
pKd: −log10 of the molar value.

Biological target: actin monomer (UniProt P68133)

WCA domain WCA (from UniProt O00401)
pKd: 6.22
